Patent US20250320286A1 (Janssen / Centocor, published 2025)

B1: BAMB631 (antibody, human IgG1, kappa, V domains shown)
VH: QVQLVQSGAEVKKPGASVKVSCKASGHVFTSYDMYWVRQAPGQSLEWMGYIDSDNGDTSYNQKFKGRVTLTVDTSTSTVYMELSSLRSEDTAVYYCAYYRYAMDYWGQGTLVTVSS
VL: DVVMTQSPLSLPVTLGQPASISCKSSQSLLDSRAKTYLTWLLQRPGQSPRRLIYLVSKLDSGVPDRFSGSGSGTDFTLKISRVEAEDVGVYYCWQGTHFPYTFGGGTKLEIKR
notes: BAMB31 HFA variant, human IgG1
B2: BAMB674 (antibody, human IgG1, kappa)
heavy: not shown
light: DVVMTQSPLSLPVTLGQPASISCKSSQSLLDSRAKTYLTWLQQRPGQSPRRLIYLVSKLDSGVPDRFSGSGSGTDFTLKISRVEAEDVGVYYCWQGTHFPYTFGGGTKLEIKRTVAAPSVFIFPPSDEQLKSGTASVVCLLNNFYPREAKVQWKVDNALQSGNSQESVTEQDSKDSTYSLSSTLTLSKADYEKHKVYACEVTHQGLSSPVTKSFNRGEC
notes: Lead HFA variant, wild type human IgG1; HCDR2 N55S; also called BAMAB674; BAMB31 HFA mAb, wild type IgG1
B3: BAMB675 (antibody, human IgG1, kappa)
heavy: QVQLVQSGAEVKKPGASVKVSCKASGHVFTSYDMYWVRQAPGQGLEWIGYIDSDSGDTSYNQKFKGRVTLTVDTSTSTVYMELSSLRSEDTAVYYCAYYRYAMDYWGQGTLVTVSSASTKGPSVFPLAPSSKSTSGGTAALGCLVKDYFPEPVTVSWNSGALTSGVHTFPAVLQSSGLYSLSSVVTVPSSSLGTQTYICNVNHKPSNTKVDKKVEPKSCDKTHTCPPCPAPELLGGPSVFLFPPKPKDTLYITREPEVTCVVVDVSHEDPEVKFNWYVDGVEVHNAKTKPREEQYNSTYRVVSVLTVLHQDWLNGKEYKCKVSNKALPAPIEKTISKAKGQPREPQVYTLPPSREEMTKNQVSLTCLVKGFYPSDIAVEWESNGQPENNYKTTPPVLDSDGSFFLYSKLTVDKSRWQQGNVFSCSVMHEALHNHYTQKSLSLSPGK
light: DVVMTQSPLSLPVTLGQPASISCKSSQSLLDSRAKTYLTWLQQRPGQSPRRLIYLVSKLDSGVPDRFSGSGSGTDFTLKISRVEAEDVGVYYCWQGTHFPYTFGGGTKLEIKRTVAAPSVFIFPPSDEQLKSGTASVVCLLNNFYPREAKVQWKVDNALQSGNSQESVTEQDSKDSTYSLSSTLTLSKADYEKHKVYACEVTHQGLSSPVTKSFNRGEC
notes: Same V regions as BAMB674 on IgG1 with M37Y, S39T, T41E in the Fc (numbering on GenBank AEV43323); also called BAMB31 HFA mAb, +YTE IgG1
B4: BAMB623 (antibody, human IgG1, kappa, V domains shown)
VH: QVQLVQSGAEVKKPGASVKVSCKASGHVFTSYDMYWVRQAPGQSLEWIGYIDSDNGDTSYNQKFKGKATMTVDTSTSTVYMELSSLRSEDTAVYYCAYYRYAMDYWGQGTLVTVSS
VL: DVVMTQSPLSLPVTLGQPASISCKSSQSLLDSRAKTYLTWLQQRPGQSPRRLIYLVSKLDSGVPDRFSGSGSGTDFTLKISRVEAEDVGVYYCWQGTHFPYTFGGGTKLEIKR
notes: as for B1
B5: BAMB612 (antibody, human IgG1, kappa, V domains shown)
VH: QVQLVQSGAEVKKPGASVKVSCKASGHVFTSYDMYWVRQSPGQGLEWIGYIDSDNGDTSYNQKFKGRVTLTVDTSTSTVYMELSSLRSEDTAVYYCAYYRYAMDYWGQGTLVTVSS
VL: DVVMTQSPLSLPVTLGQPASISCKSSQSLLDSRAKTYLTWLQQRPGQSPRRLIYLVSKLDSGVPDRFSGSGSGTDFTLKISRVEAEDVGVYYCWQGTHFPYTFGGGTKLEIKR
notes: as for B1
B6: BAMB611 (antibody, human IgG1, kappa, V domains shown)
VH: QVQLVQSGAEVKKPGASVKVSCKASGHVFTSYDMYWVRQAPGQGLEWMGYIDSDNGDTSYNQKFKGRVTMTVDTSTSTVYMELSSLRSEDTAVYYCAYYRYAMDYWGQGTLVTVSS
VL: DVVMTQSPLSLPVTLGQPASISCKSSQSLLDSNGKTYLTWFQQRPGQSPRRLIYLVSKLDSGVPDRFSGSGSGTDFTLKISRVEAEDVGVYYCWQGTHFPYTFGGGTKLEIKR
notes: as for B1
B7: BAMB246 (human IgG1 chimera) (antibody)
heavy: not shown
light: DVVMTQTPLTLSVTIGQPASISCKSSQSLLDSNGKTYLTWLLQRPGQSPKRLIYLVSKLDSGVPDRFTGSGAGTDFTLKIIRVEAEDLGVYYCWQGTHFPYTFGGGTKLEIKRTVAAPSVFIFPPSDEQLKSGTASVVCLLNNFYPREAKVQWKVDNALQSGNSQESVTEQDSKDSTYSLSSTLTLSKADYEKHKVYACEVTHQGLSSPVTKSFNRGEC
notes: Mouse variable regions on a human IgG1 constant region; also called BAMB246 (human chimeric parent)
B8: BAMB700 (antibody, human IgG1, kappa)
heavy: not shown
light: DVVMTQSPLSLPVTLGQPASISCKSSQSLLDSRAKTYLTWLQQRPGQSPRRLIYLVSKLDSGVPDRFSGSGSGTDFTLKISRVEAEDVGVYYCWQGTHFPYTFGQGTKLEIKRTVAAPSVFIFPPSDEQLKSGTASVVCLLNNFYPREAKVQWKVDNALQSGNSQESVTEQDSKDSTYSLSSTLTLSKADYEKHKVYACEVTHQGLSSPVTKSFNRGEC
B9: BAMB613 (antibody, human IgG1, kappa, V domains shown)
VH: QVQLVQSGAEVKKPGASVKVSCKASGHVFTSYDMYWVRQAPGQGLEWIGYIDSDNGDTSYNQKFKGKVTLTVDTSTSTVYMELSSLRSEDTAVYYCAYYRYAMDYWGQGTLVTVSS
VL: DVVMTQSPLSLPVTLGQPASISCKSSQSLLDSRAKTYLTWLQQRPGQSPRRLIYLVSKLDSGVPDRFSGSGSGTDFTLKISRVEAEDVGVYYCWQGTHFPYTFGGGTKLEIKR
notes: as for B1
B10: BAMB701 (antibody, human IgG1, kappa)
heavy: QVQLVQSGAEVKKPGASVKVSCKASGHVFTSYDMYWVRQAPGQGLEWIGYIDSDSGDTSYNQKFKGRVTLTVDTSTSTVYMELSSLRSEDTAVYYCAYYRYAMDYWGQGTLVTVSSASTKGPSVFPLAPSSKSTSGGTAALGCLVKDYFPEPVTVSWNSGALTSGVHTFPAVLQSSGLYSLSSVVTVPSSSLGTQTYICNVNHKPSNTKVDKKVEPKSCDKTHTCPPCPAPELLGGPSVFLFPPKPKDTLYITREPEVTCVVVDVSHEDPEVKFNWYVDGVEVHNAKTKPREEQYNSTYRVVSVLTVLHQDWLNGKEYKCKVSNKALPAPIEKTISKAKGQPREPQVYTLPPSREEMTKNQVSLTCLVKGFYPSDIAVEWESNGQPENNYKTTPPVLDSDGSFFLYSKLTVDKSRWQQGNVFSCSVMHEALHNHYTQKSLSLSPGK
light: DVVMTQSPLSLPVTLGQPASISCKSSQSLLDSRAKTYLTWLQQRPGQSPRRLIYLVSKLDSGVPDRFSGSGSGTDFTLKISRVEAEDVGVYYCWQGTHFPYTFGGGTKVEIKRTVAAPSVFIFPPSDEQLKSGTASVVCLLNNFYPREAKVQWKVDNALQSGNSQESVTEQDSKDSTYSLSSTLTLSKADYEKHKVYACEVTHQGLSSPVTKSFNRGEC
B11: BAMB614 (antibody, human IgG1, kappa, V domains shown)
VH: QVQLVQSGAEVKKPGASVKVSCKASGHVFTSYDMYWVRQAPGQGLEWIGYIDSDNGDTSYNQKFKGRVTLTVDTSTSTVYMELSSLRSEDTAVYYCAYYRYAMDYWGQGTLVTVSS
VL: DVVMTQSPLSLPVTLGQPASISCKSSQSLLDSRAKTYLTWLQQRPGQSPRRLIYLVSKLDSGVPDRFSGSGSGTDFTLKISRVEAEDVGVYYCWQGTHFPYTFGGGTKLEIKR
notes: as for B1
B12: BAMB630 (antibody, human IgG1, kappa, V domains shown)
VH: QVQLVQSGAEVKKPGASVKVSCKASGHVFTSYDMYWVKQAPGQSLEWIGYIDSDNGDTSYNQKFKGKVTLTVDTSTSTVYMELSSLRSEDTAVYYCAYYRYAMDYWGQGTLVTVSS
VL: DVVMTQSPLSLPVTLGQPASISCKSSQSLLDSRAKTYLTWLLQRPGQSPRRLIYLVSKLDSGVPDRFSGSGSGTDFTLKISRVEAEDVGVYYCWQGTHFPYTFGGGTKLEIKR
notes: as for B1
B13: BAMB31_1 (antibody, mouse IgG1, V domains shown)
VH: EIQLQQSGPELVKPGTSVKVSCKASGHVFTSYDMYWVKQSHGKSLEWIGYIDSDNGDTSYNQKFKGKATLTVDKSSSTAYMHLNSLTSEDSAVYYCAYYRYAMDYWGQGTSVTVSS
VL: not shown
notes: Hybridoma antibody

Columns and labels:
[1] = target: T1, 3pE Aβ peptide (antigen, form not stated); assay: SPR; antigen peptide not named
T1 construct: also called the peptide

fibronectin [2] = assay: SPR; no binding up to 1.2 µM
Description: (§1) In some instances, binding affinities and specificity of anti-Aβ 3pE mAbs were measured by SPR performed using different instruments (Biacore T200, Biacore 8K or MASS-2 (Biacore, Inc.)) and anti-human or anti-mouse immunoglobulin biosensor surfaces. Anti-human or anti-mouse immunoglobulin antibodies were covalently coupled to the surface of CM4 or CM5 sensor chips (GE Healthcare) using manufacturer instructions for amine-coupling chemistry. Antibodies of interest were captured on the anti-human or mouse immunoglobulin sensor chip to a level of 300-400 RU, followed by injection of Aβ peptides or proteins (examples: human Aβ 3pE-40(SEQ ID NO:40), Aβ 3pE-28 (SEQ ID NO:42), scrambled Aβ 3pE-28 (SEQ ID NO:44), Aβ 1-28 (SEQ ID NO:43), mouse Aβ 3pE-28 (SEQ ID NO:46), or Fibronectin) at various concentrations in HEPES Buffered Saline containing 0.005% surfactant P20 (Tween™ 20). The surface was regenerated with 2 pulses injections of 30 μL of 10 mM Gly pH1.5 at 100 μL/min. Data reported is the difference in SPR signal between the flow cell containing the captured antibody and a reference cell without captured antibody. Additional instrumental contributions to the signal were removed by subtraction of the data from the blank injection from the reference-subtracted signal. When applicable data were analyzed by fitting association and dissociation phases at all concentrations (global fit) with a 1:1 binding model using the Biaevaluation software (Biacore, Inc.). Otherwise the data was evaluated qualitatively for YES/NO binding.

fibronectin [3] = assay: SPR; KD for this target divided by KD for human Aβ 3pE-28
Description: as §1

4U-3pE-beta-Amyloid = assay: SPR; 4U-3pE-beta-Amyloid 0.6 to 4.5 nM
[4] = target: T1, 3pE Aβ peptide (antigen, form not …); assay: SPR; antigen peptide not named; range over the HFA variants
human Aβ1-42 peptide = human Aβ1-42 peptide (human); assay: sandwich ELISA, BAMB31_1 coated, JRF/cAβ42/26-HRPO detection
Description: For the selected Aβ3pE monoclonal antibody BAMB31, the cross-reactivity with rodent Aβ3pE-40 (SEQ ID NO:45) and human Aβ1-40 (SEQ ID NO:41), Aβ1-42 (SEQ ID NO: 48), Aβ11pE-40(SEQ ID NO:49) and Aβ11pE-42 (SEQ ID NO:50) was evaluated using synthetic peptides. The combination BAMB31 +JRF/cAβ40/28-HRPO was used to investigate the cross-reactivity with Aβ1-40 (SEQ ID NO:41), Aβ11pE-40 (SEQID NO: 49) and rodent Aβ3pE-40 (SEQ ID NO:45), and the combination BAMB31+JRF/cAβ42/26-HRPO was used to investigate the cross-reactivity with Aβ1-42 (SEQ ID NO:48) and Aβ11pE-42 (SEQ ID NO:50). Concentrations up to 10,000 pg/mL were tested.
Materials and Methods: Standards were dissolved in dimethylsulphoxide (DMSO) (Sigma) at 0.1 mg/mL and stored at −80° C. For use in ELISA, peptides were further diluted in 0.1% casein in PBS down to 1 pg/mL. Ninety-six-well-plates (Maxisorb ELISA plates; NUNC) were coated overnight at 4° C. with monoclonal antibodies from BAMB31_1 at a concentration of 1.5 μg/mL in coating buffer. The next day, plates were washed and blocked with 0.1% casein in PBS for 1-4 hours at room temperature. Standards were incubated overnight at 4° C. together with HRPO-labeled secondary antibody (JRF/cAβ40/28-HRPO or JRF/cAβ42/26-HRPO). […]

human Aβ1-42 peptide (human), sequence (peptide, as listed by the source): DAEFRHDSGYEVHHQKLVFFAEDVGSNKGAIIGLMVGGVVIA

Row | Binder | Kd [1] [nM] | Kd (4U-3pE-beta-Amyloid) [nM] | koff (4U-3pE-beta-Amyloid) [s⁻¹] | kon (4U-3pE-beta-Amyloid) [M⁻¹ s⁻¹] | also measured
1 | B1 | 0.018 | – | – | – | –
2 | B2 | – | 0.0401 | 0.000136 | 3.39e+06 | Kd (fibronectin [2]): > 1200 nM; Fold Selectivity (fibronectin [3]): > 47000 fold
3 | B3 | – | 0.0443 | 0.000166 | 3.74e+06 | Kd (fibronectin [2]): > 1200 nM; Fold Selectivity (fibronectin [3]): > 46000 fold
4 | B4 | 0.0183 | – | – | – | –
5 | B5 | 0.0117 | – | – | – | Kd [4]: 0.0117 nM
6 | B6 | 1.52 | – | – | – | Kd [4]: 1.52 nM
7 | B7 | 0.0139 | – | – | – | Kd (fibronectin [2]): > 1200 nM; Fold Selectivity (fibronectin [3]): > 95000 fold
8 | B8 | – | 0.0342 | 9.86e-05 | 2.88e+06 | –
9 | B9 | 0.0182 | – | – | – | –
10 | B10 | – | 0.0314 | 9.47e-05 | 3.01e+06 | –
11 | B11 | 0.016 | – | – | – | –
12 | B12 | 0.0383 | – | – | – | –
13 | B13 | – | – | – | – | binding result (human Aβ1-42 peptide): no binding (tested: 10 ng/ml)
